From patent US20120107299 come the findings set out here.

This data set has as its system GST protein [GST: P08515].

Sequence of GST protein [GST: P08515] (P08515 whole entry): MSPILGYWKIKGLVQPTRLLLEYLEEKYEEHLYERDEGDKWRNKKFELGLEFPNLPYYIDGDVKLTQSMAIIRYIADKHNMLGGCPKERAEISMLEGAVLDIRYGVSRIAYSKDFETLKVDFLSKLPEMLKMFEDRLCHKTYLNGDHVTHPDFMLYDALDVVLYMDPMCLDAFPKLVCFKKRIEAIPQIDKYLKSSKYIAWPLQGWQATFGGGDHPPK

As to FLAG-PTEN, the “in vitro dephosphorylation of PTEN, Western blot with anti-PTEN antibodies specific to each phosphorylation” value is “dephosphorylation of PTEN was not recognized in the GST protein”.
